The results in this text go back to IntAct's records for PubMed 20308558.

B1: Ras-related protein Rab-11A (Homo sapiens), P62491 (parent)
chain: MGTRDDEYDYLFKVVLIGDSGVGKSNLLSRFTRNEFNLESKSTIGVEFATRSIQVDGKTIKAQIWDTAGQERYRAITSAYYRGAVGALLVYDIAKHLTYENVERWLKELRDHADSNIVIMLVGNKSDLRHLRAVPTDEARAFAEKNGLSFIETSALDSTNVEAAFQTILTEIYRIVSQKQMSDRRENDMSPSNNVVPIHVPPTTENKPKVQCCQNI
partner: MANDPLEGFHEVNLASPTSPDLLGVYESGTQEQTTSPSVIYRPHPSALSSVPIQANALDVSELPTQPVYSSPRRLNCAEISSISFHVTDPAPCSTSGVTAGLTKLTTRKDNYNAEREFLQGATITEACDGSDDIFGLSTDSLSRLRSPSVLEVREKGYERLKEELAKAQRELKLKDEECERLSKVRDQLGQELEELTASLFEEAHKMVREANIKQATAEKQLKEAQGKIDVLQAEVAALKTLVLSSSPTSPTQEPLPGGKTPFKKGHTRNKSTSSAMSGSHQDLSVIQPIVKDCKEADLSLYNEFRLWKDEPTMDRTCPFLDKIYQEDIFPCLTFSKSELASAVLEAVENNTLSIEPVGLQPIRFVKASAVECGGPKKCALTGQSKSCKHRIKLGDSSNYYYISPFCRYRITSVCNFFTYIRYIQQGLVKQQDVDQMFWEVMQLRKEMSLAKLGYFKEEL

Variants of B1 are the subject of this assay. The following applies: with RAB3IP.
For Q70L, the “effect of a mutation on the interaction” value is listed as “increasing interaction”. The entry for S25N is “decreasing interaction”.
